Like-named read-outs stand apart in the source and are kept apart here.
B1: H66Q B: tsGBP2.13C.H66Q (SEQ ID NO: 46) Badan conjugate (conjugate)
chain: MKLEIFSWWAGDCGPALEALIRLYKQKYPGVEVINATVTGGAGVNAKAVLKTRMLGGDPPDTFQVQAGQELIGTWVVADRMEDLTSLFRQEGWLQAFPKGLIDLLSYKGGIWSVPVNIHRSNVMWYIPAKLKEWGVTPPKTWAEFLATAQTLKRKGLEAPLALGENWTQQHLWESVALATLGADGWNNLWSGKLKFTDPKAVAVWETFGKVLDAANKDAAGLSWQQAVDRVVQGKAAFNIMGDWAAGYMSTTLKLKPGTDFAWTPSPGTSGIFMMLSDSFGLPKGAKNRQNAINWLKLVGSKEGQDTFNPLKGSIAARLDSDPAKYNAYGQSAMKDWKSNRIVGSLVHGAVAPESFMSQFGTVMEIFLQSRNPQAAANAAQAIANQVGLGRGGSHHHHHH
modifications: Badan conjugate; tsGBP2.13C.H66Q (13C, 66Q double substitution mutant with signal peptide replaced with M and a GGSHHHHHH at C-terminus)
B2: D278S B: tsGBP2.13C.D278S (SEQ ID NO: 51) Badan conjugate (conjugate)
chain: MKLEIFSWWAGDCGPALEALIRLYKQKYPGVEVINATVTGGAGVNAKAVLKTRMLGGDPPDTFQVHAGQELIGTWVVADRMEDLTSLFRQEGWLQAFPKGLIDLLSYKGGIWSVPVNIHRSNVMWYIPAKLKEWGVTPPKTWAEFLATAQTLKRKGLEAPLALGENWTQQHLWESVALATLGADGWNNLWSGKLKFTDPKAVAVWETFGKVLDAANKDAAGLSWQQAVDRVVQGKAAFNIMGDWAAGYMSTTLKLKPGTDFAWTPSPGTSGIFMMLSSSFGLPKGAKNRQNAINWLKLVGSKEGQDTFNPLKGSIAARLDSDPAKYNAYGQSAMKDWKSNRIVGSLVHGAVAPESFMSQFGTVMEIFLQSRNPQAAANAAQAIANQVGLGRGGSHHHHHH
modifications: Badan conjugate; tsGBP2.13C.D278S (13C, 278S double substitution mutant with signal peptide replaced with M and a GGSHHHHHH at C-terminus)
B3: D278N B: tsGBP2.13C.D278N (SEQ ID NO: 50) Badan conjugate (conjugate)
chain: MKLEIFSWWAGDCGPALEALIRLYKQKYPGVEVINATVTGGAGVNAKAVLKTRMLGGDPPDTFQVHAGQELIGTWVVADRMEDLTSLFRQEGWLQAFPKGLIDLLSYKGGIWSVPVNIHRSNVMWYIPAKLKEWGVTPPKTWAEFLATAQTLKRKGLEAPLALGENWTQQHLWESVALATLGADGWNNLWSGKLKFTDPKAVAVWETFGKVLDAANKDAAGLSWQQAVDRVVQGKAAFNIMGDWAAGYMSTTLKLKPGTDFAWTPSPGTSGIFMMLSNSFGLPKGAKNRQNAINWLKLVGSKEGQDTFNPLKGSIAARLDSDPAKYNAYGQSAMKDWKSNRIVGSLVHGAVAPESFMSQFGTVMEIFLQSRNPQAAANAAQAIANQVGLGRGGSHHHHHH
modifications: Badan conjugate; tsGBP2.13C.D278N (13C, 278N double substitution mutant with signal peptide replaced with M and a GGSHHHHHH at C-terminus)
B4: W244M B: tsGBP2.13C.W244M (SEQ ID NO: 47) Badan conjugate (conjugate)
chain: MKLEIFSWWAGDCGPALEALIRLYKQKYPGVEVINATVTGGAGVNAKAVLKTRMLGGDPPDTFQVHAGQELIGTWVVADRMEDLTSLFRQEGWLQAFPKGLIDLLSYKGGIWSVPVNIHRSNVMWYIPAKLKEWGVTPPKTWAEFLATAQTLKRKGLEAPLALGENWTQQHLWESVALATLGADGWNNLWSGKLKFTDPKAVAVWETFGKVLDAANKDAAGLSWQQAVDRVVQGKAAFNIMGDMAAGYMSTTLKLKPGTDFAWTPSPGTSGIFMMLSDSFGLPKGAKNRQNAINWLKLVGSKEGQDTFNPLKGSIAARLDSDPAKYNAYGQSAMKDWKSNRIVGSLVHGAVAPESFMSQFGTVMEIFLQSRNPQAAANAAQAIANQVGLGRGGSHHHHHH
modifications: Badan conjugate; tsGBP2.13C.W244M (13C, 244M double substitution mutant with signal peptide replaced with M and a GGSHHHHHH at C-terminus)
B5: W244M A: tsGBP2.13C.W244M (SEQ ID NO: 47) Acrylodan conjugate (conjugate)
chain: MKLEIFSWWAGDCGPALEALIRLYKQKYPGVEVINATVTGGAGVNAKAVLKTRMLGGDPPDTFQVHAGQELIGTWVVADRMEDLTSLFRQEGWLQAFPKGLIDLLSYKGGIWSVPVNIHRSNVMWYIPAKLKEWGVTPPKTWAEFLATAQTLKRKGLEAPLALGENWTQQHLWESVALATLGADGWNNLWSGKLKFTDPKAVAVWETFGKVLDAANKDAAGLSWQQAVDRVVQGKAAFNIMGDMAAGYMSTTLKLKPGTDFAWTPSPGTSGIFMMLSDSFGLPKGAKNRQNAINWLKLVGSKEGQDTFNPLKGSIAARLDSDPAKYNAYGQSAMKDWKSNRIVGSLVHGAVAPESFMSQFGTVMEIFLQSRNPQAAANAAQAIANQVGLGRGGSHHHHHH
modifications: Acrylodan conjugate; tsGBP2.13C.W244M (13C, 244M double substitution mutant with signal peptide replaced with M and a GGSHHHHHH at C-terminus)
B6: D278S A: tsGBP2.13C.D278S (SEQ ID NO: 51) Acrylodan conjugate (conjugate)
chain: MKLEIFSWWAGDCGPALEALIRLYKQKYPGVEVINATVTGGAGVNAKAVLKTRMLGGDPPDTFQVHAGQELIGTWVVADRMEDLTSLFRQEGWLQAFPKGLIDLLSYKGGIWSVPVNIHRSNVMWYIPAKLKEWGVTPPKTWAEFLATAQTLKRKGLEAPLALGENWTQQHLWESVALATLGADGWNNLWSGKLKFTDPKAVAVWETFGKVLDAANKDAAGLSWQQAVDRVVQGKAAFNIMGDWAAGYMSTTLKLKPGTDFAWTPSPGTSGIFMMLSSSFGLPKGAKNRQNAINWLKLVGSKEGQDTFNPLKGSIAARLDSDPAKYNAYGQSAMKDWKSNRIVGSLVHGAVAPESFMSQFGTVMEIFLQSRNPQAAANAAQAIANQVGLGRGGSHHHHHH
modifications: Acrylodan conjugate; tsGBP2.13C.D278S (13C, 278S double substitution mutant with signal peptide replaced with M and a GGSHHHHHH at C-terminus)
B7: W244Y B: tsGBP2.13C.W244Y (SEQ ID NO: 49) Badan conjugate (conjugate)
chain: MKLEIFSWWAGDCGPALEALIRLYKQKYPGVEVINATVTGGAGVNAKAVLKTRMLGGDPPDTFQVHAGQELIGTWVVADRMEDLTSLFRQEGWLQAFPKGLIDLLSYKGGIWSVPVNIHRSNVMWYIPAKLKEWGVTPPKTWAEFLATAQTLKRKGLEAPLALGENWTQQHLWESVALATLGADGWNNLWSGKLKFTDPKAVAVWETFGKVLDAANKDAAGLSWQQAVDRVVQGKAAFNIMGDYAAGYMSTTLKLKPGTDFAWTPSPGTSGIFMMLSDSFGLPKGAKNRQNAINWLKLVGSKEGQDTFNPLKGSIAARLDSDPAKYNAYGQSAMKDWKSNRIVGSLVHGAVAPESFMSQFGTVMEIFLQSRNPQAAANAAQAIANQVGLGRGGSHHHHHH
modifications: Badan conjugate; tsGBP2.13C.W244Y (13C, 244Y double substitution mutant with signal peptide replaced with M and a GGSHHHHHH at C-terminus)
B8: D278N A: tsGBP2.13C.D278N (SEQ ID NO: 50) Acrylodan conjugate (conjugate)
chain: MKLEIFSWWAGDCGPALEALIRLYKQKYPGVEVINATVTGGAGVNAKAVLKTRMLGGDPPDTFQVHAGQELIGTWVVADRMEDLTSLFRQEGWLQAFPKGLIDLLSYKGGIWSVPVNIHRSNVMWYIPAKLKEWGVTPPKTWAEFLATAQTLKRKGLEAPLALGENWTQQHLWESVALATLGADGWNNLWSGKLKFTDPKAVAVWETFGKVLDAANKDAAGLSWQQAVDRVVQGKAAFNIMGDWAAGYMSTTLKLKPGTDFAWTPSPGTSGIFMMLSNSFGLPKGAKNRQNAINWLKLVGSKEGQDTFNPLKGSIAARLDSDPAKYNAYGQSAMKDWKSNRIVGSLVHGAVAPESFMSQFGTVMEIFLQSRNPQAAANAAQAIANQVGLGRGGSHHHHHH
modifications: Acrylodan conjugate; tsGBP2.13C.D278N (13C, 278N double substitution mutant with signal peptide replaced with M and a GGSHHHHHH at C-terminus)
B9: W244Y A: tsGBP2.13C.W244Y (SEQ ID NO: 49) Acrylodan conjugate (conjugate)
chain: MKLEIFSWWAGDCGPALEALIRLYKQKYPGVEVINATVTGGAGVNAKAVLKTRMLGGDPPDTFQVHAGQELIGTWVVADRMEDLTSLFRQEGWLQAFPKGLIDLLSYKGGIWSVPVNIHRSNVMWYIPAKLKEWGVTPPKTWAEFLATAQTLKRKGLEAPLALGENWTQQHLWESVALATLGADGWNNLWSGKLKFTDPKAVAVWETFGKVLDAANKDAAGLSWQQAVDRVVQGKAAFNIMGDYAAGYMSTTLKLKPGTDFAWTPSPGTSGIFMMLSDSFGLPKGAKNRQNAINWLKLVGSKEGQDTFNPLKGSIAARLDSDPAKYNAYGQSAMKDWKSNRIVGSLVHGAVAPESFMSQFGTVMEIFLQSRNPQAAANAAQAIANQVGLGRGGSHHHHHH
modifications: Acrylodan conjugate; tsGBP2.13C.W244Y (13C, 244Y double substitution mutant with signal peptide replaced with M and a GGSHHHHHH at C-terminus)

Assay: Ratiometric fluorescence glucose titration of fluorescent conjugates
Format: binding
Design: key to Shape (fluorescence response to glucose) / Change (fluorescence response to glucose): m, monochromatic; d, dichromatic (i.e. spectral shape change); 0, no change
Conditions: tsGBP 13C affinity mutants, Acrylodan or Badan conjugates
Outline: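 Single-cysteine glucose-binding protein mutants labelled site-specifically with thiol-reactive environmentally sensitive fluorophores; emission spectra recorded during glucose titration to detect ligand-mediated intensity and spectral-shape changes for ratiometric read-out. Temperature- and ligand-dependent fluorescence landscapes acquired in 1K steps; binding fitted to single-site fractional saturation.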

[1] = read-out: Glucose affinity ^appKd
[2] = read-out: Glucose affinity ^trueKd

| Molecule | Kd [1] | Kd [2] | Change (fluorescence response to glucose) |
| --- | --- | --- | --- |
| B1 | ~0.1 mM | ~0.09 mM | m |
| B2 | 81 mM | 91 mM | m/d |
| B3 | 99 mM |  | m/d |
| B4 | ~5 mM | ~7 mM |  |
| B5 | ~40 mM | ~20 mM |  |
| B6 |  |  | m/d |
| B7 | 4.1 mM | 3.8 mM |  |
| B8 | ~100 mM | ~100 mM |  |
| B9 | 5.6 mM | 7.8 mM |  |
